The values below come from article PMC6791878 (2019).

Like-named read-outs stand apart in the source and are kept apart here. Where no end group is shown, it is not given here.

B1: Recombinant human integrin αvβ6 (complex)
chain 1: FNLDVDSPAEYSGPEGSYFGFAVDFFVPSASSRMFLLVGAPKANTTQPGIVEGGQVLKCDWSSTRRCQPIEFDATGNRDYAKDDPLEFKSHQWFGASVRSKQDKILACAPLYHWRTEMKQEREPVGTCFLQDGTKTVEYAPCRSQDIDADGQGFCQGGFSIDFTKADRVLLGGPGSFYWQGQLISDQVAEIVSKYDPNVYSIKYNNQLATRTAQAIFDDSYLGYSVAVGDFNGDGIDDFVSGVPRAARTLGMVYIYDGKNMSSLYNFTGEQMAAYFGFSVAATDINGDDYADVFIGAPLFMDRGSDGKLQEVGQVSVSLQRASGDFQTTKLNGFEVFARFGSAIAPLGDLDQDGFNDIAIAAPYGGEDKKGIVYIFNGRSTGLNAVPSQILEGQWAARSMPPSFGYSMKGATDIDKNGYPDLIVGAFGVDRAILYRARPVITVNAGLEVYPSILNQDNKTCSLPGTALKVSCFNVRFCLKADGKGVLPRKLNFQVELLLDKLKQKGAIRRALFLYSRSPSHSKNMTISRGGLMQCEELIAYLRDESEFRDKLTPITIFMEYRLDYRTAADTTGLQPILNQFTPANISRQAHILLDCGEDNVCKPKLEVSVDSDQKKIYIGDDNPLTLIVKAQNQGEGAYEAELIVSIPLQADFIGVVRNNEALARLSCAFKTENQTRQVVCDLGNPMKAGTQLLAGLRFSVHQQSEMDTSVKFDLQIQSSNLFDKVSPVVSHKVDLAVLAAVEIRGVSSPDHVFLPIPNWEHKENPETEEDVGPVVQHIYELRNNGPSSFSKAMLHLQWPYKYNNNTLLYILHYDIDGPMNCTSDMEINPLRIKISSLQTTEKNDTVAGQGERDHLITKRDLALSEGDIHTLGCGVAQCLKIVCQVGRLDRGKSAILYVKSLLWTETFMNKENQNHSYSLKSSASFNVIEFPYKNLPIEDITNSTLVTTNVTWGIQPAPMPV
chain 2: GCALGGAETCEDCLLIGPQCAWCAQENFTHPSGVGERCDTPANLLAKGCQLNFIENPVSQVEILKNKPLSVGRQKNSSDIVQIAPQSLILKLRPGGAQTLQVHVRQTEDYPVDLYYLMDLSASMDDDLNTIKELGSRLSKEMSKLTSNFRLGFGSFVEKPVSPFVKTTPEEIANPCSSIPYFCLPTFGFKHILPLTNDAERFNEIVKNQKISANIDTPEGGFDAIMQAAVCKEKIGWRNDSLHLLVFVSDADSHFGMDSKLAGIVIPNDGLCHLDSKNEYSMSTVLEYPTIGQLIDKLVQNNVLLIFAVTQEQVHLYENYAKLIPGATVGLLQKDSGNILQLIISAYEELRSEVELEVLGDTEGLNLSFTAICNNGTLFQHQKKCSHMKVGDTASFSVTVNIPHCERRSRHIIIKPVGLGDALELLVSPECNCDCQKEVEVNSSKCHHGNGSFQCGVCACHPGHMGPRCECGEDMLSTDSCKEAPDHPSCSGRGDCYCGQCICHLSPYGNIYGPYCQCDNFSCVRHKGLLCGGNGDCDCGECVCRSGWTGEYCNCTTSTDSCVSEDGVLCSGRGDCVCGKCVCTNPGASGPTCERCPTCGDPCNSKRSCIECHLSAAGQAREECVDKCKLAGATISEEEDFSKDGSVSCSLQGENECLITFLITTDNEGKTIIHSINEKDCPKPPNIP

The target in test [1] is B1. Briefly: FACS; competition with yeast-displayed R01-MG.
The next test has as its target R01-MW. The test can be described thus: FACS. In general terms: In flow cytometry, cells or beads pass a laser one at a time.
The target in test [2] is B1. The test can be described thus: FACS; competition with yeast-displayed R01-MG.

A word on the IC50: it is the concentration at which inhibition is half-maximal. GCILNGRTDLGTLLFRCRRDSDCPGACICRGNGYCG-NH2 (designed binder, disulfide (positions not given here)) [R01-MG synthetic cystine knot peptide (unlabeled precursor)]: in test [1], the IC50 worked out at 0.383 nM.
Broadly, the Kd is a measure of binding affinity in units of concentration. A lower Kd goes with higher affinity. Consider B1, for which binding in the test with R01-MW was characterised by a dissociation constant (Kd) of 1.69 nM.
For the molecule {(19F)fluoropropyl}-GCILNGRTDLGTLLFRCRRDSDCPGACICRGNGYCG (designed binder, disulfide (positions not given here); not fully specified (C-terminus)) [[^19F]FP-R01-MG-F2], the IC50 in test [1] turned out to be 0.469 nM.
On to {2‑(19F)fluoropropionyl}-GCILNGRTDLGTLLFRCRRDSDCPGACICRGNGYCG-NH2 (disulfide (positions not given here); not fully specified (bridges)) [[19F]FP-R01-MG-F1], for which the IC50 in test [2] amounted to 0.541 nM.
